What all share (assay): cryo-EM structure; endogenous holoenzymes co-purified from Expi 293F cells as a mixture of biotin-dependent carboxylases; HBS buffer (20 mM HEPES, pH 7.4, 150 mM NaCl); apo, or pre-incubated with 25 mM NaHCO3, 10 mM MgCl2 and 10 mM propionyl-CoA or acetyl-CoA, 10 mM ATP added before freezing
Data set [1] deals with the molecule itself.
Data set [2] deals with T1, human 3-methylcrotonyl-CoA carboxylase α subunit (human (endogenous in Expi 293F), UniProt Q96RQ3 42-725, biotin covalently linked to K681 (AMKM motif of the BCCP domain)).
T1 construct: 3-methylcrotonyl-CoA carboxylase α subunit (MCCα), human, endogenous; holds the BC, BT and BCCP domains; Purified as part of the endogenous α6β6 MCC holoenzyme, in a mixture with the other biotin-dependent carboxylases; also called MCCα; α subunit of MCC; source: endogenous, Expi 293F cells, purified (Strep-Tactin XT resin, size-exclusion chromatography)
T1 sequence (looked up): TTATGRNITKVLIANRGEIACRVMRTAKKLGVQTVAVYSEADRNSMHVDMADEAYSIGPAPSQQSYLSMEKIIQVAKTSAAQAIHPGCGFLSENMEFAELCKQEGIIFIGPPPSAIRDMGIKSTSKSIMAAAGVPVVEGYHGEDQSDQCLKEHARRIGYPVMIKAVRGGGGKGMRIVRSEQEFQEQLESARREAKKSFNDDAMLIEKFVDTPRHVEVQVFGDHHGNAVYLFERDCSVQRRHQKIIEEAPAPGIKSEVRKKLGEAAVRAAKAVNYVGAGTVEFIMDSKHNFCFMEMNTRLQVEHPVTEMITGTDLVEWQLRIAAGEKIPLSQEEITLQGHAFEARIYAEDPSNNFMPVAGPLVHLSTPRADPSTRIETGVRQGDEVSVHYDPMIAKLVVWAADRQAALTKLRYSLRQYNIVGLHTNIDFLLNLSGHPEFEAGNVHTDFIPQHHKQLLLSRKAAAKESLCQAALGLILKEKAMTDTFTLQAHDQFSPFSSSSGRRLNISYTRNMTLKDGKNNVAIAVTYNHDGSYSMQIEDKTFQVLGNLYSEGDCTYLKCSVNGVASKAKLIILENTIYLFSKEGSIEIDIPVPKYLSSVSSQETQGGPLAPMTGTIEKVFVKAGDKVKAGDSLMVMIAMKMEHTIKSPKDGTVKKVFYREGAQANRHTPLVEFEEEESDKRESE
The conditions noted are these: both partners purified.

For data set [3], the target named is T2, human propionyl-CoA carboxylase α subunit (human (endogenous in Expi 293F), UniProt P05165 53-728, biotin covalently linked to K694 (AMKM motif of the BCCP domain)).
T2 construct: Propionyl-CoA carboxylase α subunit (PCCα), human, endogenous; holds the BC, BT and BCCP domains; Purified as part of the endogenous α6β6 PCC holoenzyme, in a mixture with the other biotin-dependent carboxylases; also called PCCα; α subunit of PCC; source: endogenous, Expi 293F cells, purified (Strep-Tactin XT resin, size-exclusion chromatography)
T2 sequence (looked up): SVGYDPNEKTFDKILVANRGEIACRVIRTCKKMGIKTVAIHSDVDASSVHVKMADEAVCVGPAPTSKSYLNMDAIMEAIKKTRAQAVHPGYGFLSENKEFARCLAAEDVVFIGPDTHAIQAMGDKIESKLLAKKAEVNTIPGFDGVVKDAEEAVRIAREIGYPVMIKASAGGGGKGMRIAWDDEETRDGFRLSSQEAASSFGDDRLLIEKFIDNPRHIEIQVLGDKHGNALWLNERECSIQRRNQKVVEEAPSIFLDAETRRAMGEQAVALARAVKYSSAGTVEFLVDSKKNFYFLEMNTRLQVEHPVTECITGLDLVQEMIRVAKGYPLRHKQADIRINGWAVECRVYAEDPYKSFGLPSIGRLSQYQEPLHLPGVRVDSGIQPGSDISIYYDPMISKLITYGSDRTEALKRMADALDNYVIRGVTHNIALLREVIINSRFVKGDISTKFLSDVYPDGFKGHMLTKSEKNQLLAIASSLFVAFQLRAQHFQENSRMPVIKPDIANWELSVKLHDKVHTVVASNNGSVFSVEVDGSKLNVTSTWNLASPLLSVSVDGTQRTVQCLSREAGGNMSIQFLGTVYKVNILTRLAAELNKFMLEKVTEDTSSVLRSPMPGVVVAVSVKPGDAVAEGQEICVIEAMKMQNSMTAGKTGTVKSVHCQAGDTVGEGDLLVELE
Conditions: both partners purified.

B1: human 3-methylcrotonyl-CoA carboxylase β subunit (natural protein, human (endogenous in Expi 293F), UniProt Q9HCC0 23-563, looked up)
chain: YHGDSVASLGTQPDLGSALYQENYKQMKALVNQLHERVEHIKLGGGEKARALHISRGKLLPRERIDNLIDPGSPFLELSQFAGYQLYDNEEVPGGGIITGIGRVSGVECMIIANDATVKGGAYYPVTVKKQLRAQEIAMQNRLPCIYLVDSGGAYLPRQADVFPDRDHFGRTFYNQAIMSSKNIAQIAVVMGSCTAGGAYVPAMADENIIVRKQGTIFLAGPPLVKAATGEEVSAEDLGGADLHCRKSGVSDHWALDDHHALHLTRKVVRNLNYQKKLDVTIEPSEEPLFPADELYGIVGANLKRSFDVREVIARIVDGSRFTEFKAFYGDTLVTGFARIFGYPVGIVGNNGVLFSESAKKGTHFVQLCCQRNIPLLFLQNITGFMVGREYEAEGIAKDGAKMVAAVACAQVPKITLIIGGSYGAGNYGMCGRAYSPRFLYIWPNARISVMGGEQAANVLATITKDQRAREGKQFSSADEAALKEPIIKKFEEEGNPYYSSARVWDDGIIDPADTRLVLGLSFSAALNAPIEKTDFGIFRM
notes: 3-methylcrotonyl-CoA carboxylase β subunit (MCCβ), human, endogenous; CT domain (CT-N and CT-C subdomains); Co-purified with the biotinylated α subunit as the endogenous α6β6 MCC holoenzyme; also called MCCβ; β subunit of MCC; source: endogenous, Expi 293F cells, purified (Strep-Tactin XT resin, size-exclusion chromatography)
As for B1, the “stoichiometry N” value in data set [1] turned out to be 6. Also, the binding result in data set [2] is on record as “binds”.

B2: human propionyl-CoA carboxylase β subunit (natural protein, human (endogenous in Expi 293F), UniProt P05166 29-539, looked up)
chain: CSQATSVNERIENKRRTALLGGGQRRIDAQHKRGKLTARERISLLLDPGSFVESDMFVEHRCADFGMAADKNKFPGDSVVTGRGRINGRLVYVFSQDFTVFGGSLSGAHAQKICKIMDQAITVGAPVIGLNDSGGARIQEGVESLAGYADIFLRNVTASGVIPQISLIMGPCAGGAVYSPALTDFTFMVKDTSYLFITGPDVVKSVTNEDVTQEELGGAKTHTTMSGVAHRAFENDVDALCNLRDFFNYLPLSSQDPAPVRECHDPSDRLVPELDTIVPLESTKAYNMVDIIHSVVDEREFFEIMPNYAKNIIVGFARMNGRTVGIVGNQPKVASGCLDINSSVKGARFVRFCDAFNIPLITFVDVPGFLPGTAQEYGGIIRHGAKLLYAFAEATVPKVTVITRKAYGGAYDVMSSKHLCGDTNYAWPTAEIAVMGAKGAVEIIFKGHENVEAAQAEYIEKFANPFPAAVRGFVDDIIQPSSTRARICCDLDVLASKKVQRPWRKHANIPL
notes: Propionyl-CoA carboxylase β subunit (PCCβ), human, endogenous; CT domain (CT-N and CT-C subdomains); Co-purified with the biotinylated α subunit as the endogenous α6β6 PCC holoenzyme; also called PCCβ; β subunit of PCC; source: endogenous, Expi 293F cells, purified (Strep-Tactin XT resin, size-exclusion chromatography)
Consider B2, for which, in data set [3], the binding result is given as “binds”.

A word on the stoichiometry N: it is a count of units in the complex or per binding partner.

The values are drawn from paper doi:10.1101/2024.04.30.591959, “Structural insights into human propionyl-CoA carboxylase (PCC) and 3-methylcrotonyl-CoA carboxylase (MCC)” (bioRxiv, 2024).
